Results reported in the supplement of paper PMC10126150.
± gives the standard deviation of the averaged measurements.

system: ATP; experiment: switch fluorescence ratio, 500 uM ATP over buffer (Cy3 cluster intensity, sum of 5 cycles each) (fold (ratio)); higher = stronger signal-on switching upon ATP binding; sequences stand for … in TCGTCGGCAGCGTCAGATGTGTATAAGAGACAGTTTTTTTTTTTTTTTTTTTTTTTTT…TC; details: aptamer strand: ATP DNA aptamer (quencher-CACCTGGGGGAGTATTGCGGAGGAAGG + anchor), 100 nM annealed; ATP concentration: 500 uM
How it was run: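 Five buffer/ATP imaging cycles were run on Cy3-labelled switching-strand clusters on a modified Illumina MiSeq flow-cell, with NaOH stripping and re-annealing between cycles. In each cycle, clusters annealed to 100 nM quencher-labelled ATP aptamer were imaged in selection buffer, then after 15 min with 500 uM ATP at 22 °C. Per cluster, the fluorescence ratio is summed target-cycle over summed buffer-cycle Cy3 intensity, averaged per switch-domain sequence. Only clusters within 100-1000 RFU were kept.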
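Note: ATP exposure 15 min at 22 °C before imaging.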

| Sequence | switch fluorescence ratio |
| --- | --- |
| ACATACGAAC | 1.38 ± 0.098 |
| ACATAGCTGG | 1.01 ± 0.029 |
| ACATAGCTTT | 1.03 ± 0.036 |
| ACATAGGAAC | 1.024 ± 0.004 |
| ACATATCTTT | 1.025 ± 0.0012 |
| ACATATGGGC | 0.974 ± 0.037 |
| ACATATTTTG | 1.01 ± 0.033 |
| ACATCAATTC | 1.1 ± 0.014 |
| ACATCGGGCT | 1.02 ± 0.027 |
| ACATCGTCAT | 1.01 ± 0.02 |
| ACATCGTTCT | 0.977 ± 0.018 |
| ACATCTGACA | 1.06 ± 0.019 |
| ACATCTTTTA | 1.03 ± 0.038 |
| ACATGAGCGT | 0.996 ± 0.016 |
| ACATGAGGTG | 1.18 ± 0.064 |
| ACATGAGTCT | 1.02 ± 0.02 |
| ACATGGAGAG | 0.985 ± 0.052 |
| ACATGGATAA | 1.012 ± 0.0044 |
| ACATGGGCT | 1.003 ± 0.0088 |
| ACATGGGGGA | 1.02 ± 0.0082 |
| ACATGGGTT | 1.04 ± 0.05 |
| ACATGTCTGA | 0.9991 ± 0.0024 |
| ACATGTGGAT | 0.996 ± 0.05 |
| ACATGTTATT | 1.01 ± 0.035 |
| ACATTACACA | 1.4 ± 0.25 |

| Sequence | switch fluorescence ratio |
| --- | --- |
| ACATTAGTGG | 1.01 ± 0.01 |
| ACATTCTATT | 1.01 ± 0.021 |
| ACATTTTGGT | 0.995 ± 0.03 |
| ACCAATTTTG | 1.01 ± 0.024 |
| ACCACAATGT | 1.08 ± 0.055 |
| ACCACCGTTG | 1.113 ± 0.0039 |
| ACCACGGGGT | 1.02 ± 0.038 |
| ACCAGATGCG | 1.01 ± 0.03 |
| ACCAGCCTGG | 1.01 ± 0.025 |
| ACCAGGGTCA | 1.05 ± 0.034 |
| ACCAGTCTGG | 1.01 ± 0.017 |
| ACCAGTGTCA | 1.02 ± 0.021 |
| ACCATGGCTT | 0.976 ± 0.013 |
| ACCATGGGAA | 1.04 ± 0.022 |
| ACCATGTTTG | 1.012 ± 0.0072 |
| ACCCAGGGCG | 1.44 ± 0.13 |
| ACCCATCCAT | 1.02 ± 0.017 |
| ACCCGCTTTT | 1.38 ± 0.31 |
| ACCCGGCTCC | 1.23 ± 0.045 |
| ACCCGTTGTG | 1.05 ± 0.03 |
| ACCCTCGCAG | 1.748 ± 0.0058 |
| ACCCTGGGGT | 2.14 ± 1.6 |
| ACCGATACCC | 1.31 ± 0.022 |
| ACCGCGGGGG | 1.03 ± 0.034 |
| ACCGCGGTGT | 1.007 ± 0.0052 |

| Sequence | switch fluorescence ratio |
| --- | --- |
| ACCGCGTATG | 1.03 ± 0.038 |
| ACCGCTATGT | 1.57 ± 0.019 |
| ACCGGAGTCA | 1.22 ± 0.058 |
| ACCGGGAGAT | 0.994 ± 0.042 |
| ACCGGGAGGT | 1.01 ± 0.049 |
| ACCGGGGCAA | 1.13 ± 0.16 |
| ACCGGGTTGC | 1.064 ± 0.008 |
| ACCGGTACTC | 1.31 ± 0.047 |
| ACCGGTGTAC | 1.77 ± 0.12 |
| ACCGGTTATT | 1 ± 0.013 |
| ACCGGTTGCC | 0.974 ± 0.058 |
| ACCGGTTGGT | 0.976 ± 0.01 |
| ACCGGTTTCT | 0.997 ± 0.037 |
| ACCGTAGGTG | 1.03 ± 0.034 |
| ACCGTGAAGG | 0.99924 ± 8.2e-05 |
| ACCGTGTCAA | 1.01 ± 0.032 |
| ACCGTGTCGT | 0.989 ± 0.095 |
| ACCGTTAGGT | 0.951 ± 0.037 |
| ACCTACGCGG | 1.97 ± 0.22 |
| ACCTAGGACT | 1.024 ± 0.0027 |
| ACCTAGTAAA | 0.987 ± 0.025 |
| ACCTCACTTT | 1.303 ± 0.005 |
| ACCTCATTAA | 1.03 ± 0.015 |
| ACCTCCCGGG | 1.13 ± 0.17 |
| ACCTCGGTCG | 0.983 ± 0.019 |

| Sequence | switch fluorescence ratio |
| --- | --- |
| ACCTGATTAA | 1.01 ± 0.018 |
| ACCTGGGCAG | 1.07 ± 0.015 |
| ACCTTACTTA | 1.29 ± 0.029 |
| ACCTTCCGGG | 2.37 ± 0.084 |
| ACCTTGATTG | 1.01 ± 0.018 |
| ACCTTGCACA | 1.252 ± 0.012 |
| ACCTTTTTAG | 1.02 ± 0.015 |
| ACCTTTTTAT | 1.02 ± 0.038 |
| ACGAAAAAAG | 1.02 ± 0.012 |
| ACGAAGGGCG | 1.019 ± 0.01 |
| ACGAAGGGTC | 0.9941 ± 0.0098 |
| ACGAATAAGG | 1.03 ± 0.021 |
| ACGACAGATG | 0.961 ± 0.046 |
| ACGACCATCG | 1.01 ± 0.02 |
| ACGACGAAAC | 3.35 ± 1 |
| ACGACGAAGG | 1.06 ± 0.083 |
| ACGACTTAGG | 1.07 ± 0.017 |
| ACGACTTTAG | 1.022 ± 0.0014 |
| ACGAGAACGA | 1.05 ± 0.021 |
| ACGAGATGGT | 1.023 ± 0.0069 |
| ACGAGCGCGT | 1.02 ± 0.027 |
| ACGAGGCCAG | 1.23 ± 0.032 |
| ACGAGGCGTA | 1.04 ± 0.0046 |
| ACGAGGCTTC | 1.294 ± 0.0082 |
| ACGAGGGAGC | 1.05 ± 0.017 |
